Each block holds one molecule with its values, some of them ahead of it. No end group written: not given here.
Experiments:
[1] = biological target: ICAM-1 (Homo sapiens, UniProt P05362); experiment: 125I-labeled γ3 binding to ICAM-1 CHO transfectants
Procedure: A variant polypeptide γ3 (KYG-γ3) duplicating the fibrinogen γ chain sequence 117-133 N^117NQKIVNLKEKVAQLEA^133 (SEQ ID NO 2) was synthesized with the addition of Lys-Tyr-Gly residues at the amino terminus to facilitate radiolabeling of the polypeptide (KYGN^117NQKIVNLKEKVAQLEA^133, SEQ ID NO 4). The variant γ3 and L10 polypeptides were synthesized as described in Example 7A. Typically, 2 mg of KYG-γ3 were iodinated with 5 mCi ^125I-Na (Amersham, Arlington Heights, Ill.) by the IODO-GEN method (Fraker et al., Biochem Biophys Res Commun., 80:849-857, (1978)) for 45 min at 4° C. Free radioactivity was separated from polypeptide-bound radioactivity by gel-filtration over a Bio-Gel P-2 column (Bio-Rad, Richmond, Va.) which had been preequilibrated with PBS, pH 7.2, containing 0.01% BSA, with a flow rate of 0.2 ml/sec.
Confluent monolayers of ICAM-1 CHO transfectants or wild type (WT) CHO cells were incubated in serum-free RPMI 1640 medium with increasing concentrations of ^125I-labeled γ3 peptide (10-150 μg/ml) in the presence of 1 mM CaCl2 and 1 mM MgCl2 for 45 min at 22° C. Cells were washed with three rapid changes of serum-free RPMI 1640, solubilized in 10% SDS, and radioactivity associated under the various conditions tested was quantitated in a beta-counter. […]

[2] = test system: WT CHO cells; experiment: 125I-labeled γ3 binding to wild type CHO cells; set-up: species or system Chinese Hamster; conditions: 50 μg/ml
Procedure: Confluent monolayers of ICAM-1 CHO transfectants or wild type (WT) CHO cells were incubated in serum-free RPMI 1640 medium with increasing concentrations of ^125I-labeled γ3 peptide (10-150 μg/ml) in the presence of 1 mM CaCl2 and 1 mM MgCl2 for 45 min at 22° C. Cells were washed with three rapid changes of serum-free RPMI 1640, solubilized in 10% SDS, and radioactivity associated under the various conditions tested was quantitated in a beta-counter. Non specific binding was assessed in the presence of a 100-fold molar excess unlabeled γ3 peptide, or control peptide L10 added at the start of incubation, and was subtracted from the total as described above.

[3] = test system: HUVEC; experiment: Adhesion of terminally-differentiated 51Cr-labeled HL-60 cells to resting HUVEC with plasma adhesive proteins; format: cell-based, human; conditions: for adhesion of differentiated HL-60 cells to HUVEC relative to cells not equilibrated with an adhesive protein: 150 μ/ml protein, fMLP 10 μM, 30 min at 22° C.
Procedure: The effect of fibrinogen, vitronectin, and fibronectin on the interaction of terminally-differentiated HL-60 and monocytic THP-1 cells with HUVEC was determined as described in Languino, supra. Briefly, serum-free suspensions of HL-60 or THP-1 cells were labeled with ^51Cr as described in Example 81A to a final incorporation of 0.2-4 cpm/cell. After washes in PBS, pH 7.2, aliquots of the HL-60 cells were resuspended in serum-free RPMI 1640 at 1.5×10^6/ml and stimulated with 10 μM of the chemoattractant formyl-methionyl-leucyl-phenylalanine (fMLP, Sigma, St. Louis, Mo.) and equilibrated with 150 μ/ml fibrinogen, vitronectin, or fibronectin in the presence of 1 mM CaCl2 for 20 min at 22° C. Equilibrated HL-60 were added to resting HUVEC monolayers that had been previously incubated with fresh complete culture medium 12 hours prior to the experiment and incubated for an additional 30 min at 22° C., washed,solubilized in 10-20% SDS, and associated radioactivity determined in a scintillation β-counter. The number of attached cells was quantitated by diving the cpm harvested by the cpm/cell. Under these experimental conditions, there was no aggregation of the various leukocyte subpopulations in the presence of the different plasma adhesive proteins, nor disruption of the HUVEC monolayers at any time interval tested, as judged by routine microscopic examination of the adhesion field. Data are the mean ± S.D. of triplicates from a representative experiment.
Experimental conditions were the same as described in Example 9C1 except that the ^51Cr-labeled HL-60 cells were equilibrated with 40 μg/ml vitronectin or control protein transferrin and added to resting HUVEC for increasing time intervals between 10 and 60 minutes at 22° C. before measurement of leukocyte adhesion.
Experimental conditions were the same as described in Example 9C1 except that the ^51Cr-labeled HL-60 cells were equilibrated with several concentrations of vitronectin ranging from 1.84 to 150 μg/ml and prior to incubation to resting HUVEC.

[4] = test system: ICAM-1+ JY lymphocytes; experiment: Adhesion of 51Cr-labeled JY lymphocytes to peptide-coated wells; format: cell-based; conditions: wells coated with 1-100 μg/ml peptide, 45 min at 37° C.
Procedure: Ninety-six well assay plates (Costar, Cambridge, Mass.) were coated with increasing concentrations (1-100 μg/ml) of the polypeptides γ3 and L10 in PBS, pH 7.2, for 18 h at 4° C. Wells were washed in PBS, pH 7.2 and blocked with 3% gelatin for 60 min at 37° C.
Serum-free suspensions of JY lymphocytes were labeled with 0.5 mCi ^51Cr (Na2CrO4, specific activity 487.4 mCi/mg, E. I., DuPont de Nemours, Wilmington, Del.) for 2 h at 37° C., with a final incorporation of 0.2-4 cpm/cell (Languino, et al., supra). Aliquots of ^51Cr-labeled JY lymphocytes at 1×10^6/ml were added to peptide-coated wells for 45 min at 37° C., washed, solubilized in 20% SDS, and radioactivity associated under the various conditions was determined in a scintillation beta-counter. The number of attached cells was quantitated by dividing the cpm harvested by the cpm/cell. Data are the mean ± S.D. of two independent experiments.

[5] = biological target: T1, ICAM-1 receptor on JY lymphocytes (Homo sapiens, UniProt P05362); experiment: Inhibition of JY lymphocyte adhesion to γ3-coated plates by monoclonal antibodies; format: cell-based; conditions: plates coated with 20 μ/ml peptide, no antibody
T1 construct: endogenous in cells; host or cells: JY lymphocytes (51Cr-labelled)
T1 sequence (P05362 28-532): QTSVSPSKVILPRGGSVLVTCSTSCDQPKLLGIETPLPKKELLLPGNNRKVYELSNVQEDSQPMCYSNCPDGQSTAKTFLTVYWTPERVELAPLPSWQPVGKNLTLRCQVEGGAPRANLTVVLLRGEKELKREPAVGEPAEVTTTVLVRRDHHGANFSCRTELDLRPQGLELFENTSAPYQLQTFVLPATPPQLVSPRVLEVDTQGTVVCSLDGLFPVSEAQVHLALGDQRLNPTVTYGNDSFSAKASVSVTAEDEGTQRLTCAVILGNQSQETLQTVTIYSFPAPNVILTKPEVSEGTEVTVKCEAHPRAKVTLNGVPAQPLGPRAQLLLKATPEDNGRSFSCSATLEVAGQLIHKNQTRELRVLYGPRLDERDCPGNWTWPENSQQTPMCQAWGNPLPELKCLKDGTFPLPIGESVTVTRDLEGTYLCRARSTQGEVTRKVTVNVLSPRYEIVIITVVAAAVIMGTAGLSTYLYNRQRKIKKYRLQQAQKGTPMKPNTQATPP
Procedure: Binding inhibition assays were performed using radiolabeled ICAM-1^+ JY lymphocytes and the γ3 polypeptide. […] The peptides used in this assay were the γ3 and irrelevant polypeptide L10 prepared as described in Example 7A.
Ninety-six well assay plates were coated with 20 μ/ml of the polypeptides γ3 and L10 and the ^51Cr-labeled JY lymphocytes were prepared as described above. The ^51Cr-labeled JY lymphocytes were preincubated with saturating concentrations (25 μg/ml) of monoclonal antibodies anti-ICAM-1 1G12, 2D5, or 6E6; or anti-EPR-1 6A11 before incubation in the […] plates. Binding of radiolabelled JY lymphocytes was measured after a 45 min maintenance period in the presence of the monoclonal antibodies in the γ3 peptide-coated plate. Background binding was assessed by the incubation of ^51Cr-labeled JY lymphocytes which had not been preincubated with a monoclonal antibody in the L10 peptide-coated plate. Data are the mean ± S.D. of replicates of two independent experiments.

[6] = test system: HUVEC; experiment: Inhibition of 125I-labelled fibrinogen binding to HUVEC by cold fibrinogen, anti-VNR antibodies and RGD/RGE peptides; set-up: species or system human; conditions: anti-VNR antibody 25 μg/ml, 20 minutes at 37° C. preincubation
Procedure: Binding of ^125I-labelled fibrinogen binding to HUVEC assays were performed in the presence of 50 molar excess of unlabelled fibrinogen in order to confirm the specificity of binding as shown in Example 3A. The binding assay was performed as described in Example 3A with the exception that unlabelled fibrinogen was admixed to HUVEC at a 50 molar excess (approximately […] fibrinogen) concurrently with 50 μg/ml of ^125I-labelled fibrinogen. The protein-cell admixtures were maintained at 22° C. for 30 minutes to allow for binding of fibrinogen to HUVEC. In addition to cold fibrinogen, a 50 fold molar excess of BSA was separately admixed as a control. The amount of fibrinogen bound under the above conditions was quantitated as described in Example 3A. The uninhibited total binding of ^125I-labelled fibrinogen saturated after 30 minutes at approximately 4000 cpm per well. […] The binding of fibrinogen to the HUVEC surface fibrinogen receptor is therefore specific.
The specificity of binding to an RGD-independent fibrinogen receptor was confirmed in competition assays performed as described above in the presence of monoclonal antibodies against the beta subunit of the RGD-dependent VNR and in the presence of RGD-containing peptides. For the assays in which the ability of anti-VNR monoclonal antibodies, designated mAb 609 and mAb 7E3, to inhibit the binding of ^125I-labelled fibrinogen to HUVEC, the antibodies were separately maintained at a concentration of 25 μg/ml with HUVEC for 20 minutes at 37° C. After the maintenance period, the antibody-treated HUVEC were washed once with serum-free RPMI 1640 to remove any unbound antibody. Labelled fibrinogen was then admixed to the treated HUVEC at a concentration of 50 μg/ml in the presence of 2.5 mM CaCl2 and […] PPack. The resultant admixtures were maintained for 10-30 minutes at 22° C. The fibrinogen-treated HUVEC were then washed, solubilized and counted as described in Example 3A.
To confirm that the fibrinogen binding site on HUVEC was not RGD dependent, inhibition assays performed as described above for inhibiting with antibodies except that they were done in the presence of 1.0 mM of an RGD-containing peptide. A control RGE-containing peptide was also included in the assay. At selected time points over the time course of one hour, the HUVEC were harvested as described in Example 3A.

[7] = test system: HUVEC; experiment: Iodinated D30 binding to HUVEC monolayers and its competition; set-up: species or system human; conditions: 50 fold molar excess of cold fibrinogen; myoglobin as nonspecific protein
Procedure: Binding assays described above in Example 3A2) were also performed with the fibrinogen homolog, D30, to determine if that region of fibrinogen also immunoreacted with HUVEC. Since D30 was known to bind to leukocytes via the Mac-1 receptor as described by Altieri et al., J. Biol. Chem., 265:12119-12122 (1990), these experiments were performed to determine if regions of fibrinogen mediating the binding of leukocytes to HUVEC are contained within the D30 fragment. For this analysis, the D30 fragment of fibrinogen prepared in Example 1B was labelled with ^125I as described for labelling of fibrinogen above. Iodinated D30 was admixed to HUVEC monolayers at a concentration of 10 μg/ml to form a binding complex. After washing the cells to remove the unbound D30 as described in Example 3A2) above, the cells were solubilized and the amount of bound radioactivity was determined. The binding of D30 to HUVEC was maximal at 120 minutes of the maintenance period with approximately 60,000 cpm.

Sequence of ICAM-1 (P05362 28-532): as above

Molecule: KYGN^117NQKIVNLKEKVAQLEA^133 (KYGNNQKIVNLKEKVAQLEA; also: 125I radiolabel) [KYG-γ3]
binding of 125I-labeled γ3 polypeptide to ICAM-1 CHO transfectants ([1]; 10-150 μg/ml, 1 mM CaCl2 and 1 mM MgCl2, 45 min at 22° C.): bound to ICAM-1 CHO transfectants in a specific and dose-dependent fashion
binding of 125I-labeled γ3 polypeptide to WT CHO cells [2]: did not bind

Molecule: fibronectin
adhesion of differentiated HL-60 cells to HUVEC relative to cells not equilibrated with an adhesive protein [3]: did not result in an increase in adhesion

competition of 125I-labeled γ3 polypeptide binding ([1]; 100-fold molar excess unlabeled peptide): competitively inhibited
Molecule: NNQKIVNLKEKVAQLEA (OTHER INFORMATION: synthesized) [γ3]
adhesion of JY lymphocytes to immobilized peptide [4]: strongly adhered

Molecule: LGGAKQAGDV (OTHER INFORMATION: synthesized) [L10, reference compound]
adhesion of JY lymphocytes to immobilized peptide [4]: did not support lymphocyte adhesion at any concentration tested
JY lymphocyte adhesion to L10-coated plate (background) [5]: did not support significant JY lymphocyte adhesion

inhibition of 125I-labelled fibrinogen binding to HUVEC (FIG. 7) [6]: no inhibitory effect
B1: mAb 609: anti-VNR monoclonal antibody (antibody, V domains shown)
VH: EVQLEESGGGLVKPGGSLKLSCAASGFAFSSYDMSWVRQIPEKRLEWVAKVSSGGGSTYYLDTVQGRFTISRDNAKNTLYLQMSSLNSEDTAMYYCARHNYGSFAYWGQGTLVTVSA
VL: ELVMTQTPATLSVTPGDSVSLSCRASQSISNHLHWYQQKSHESPRLLIKYASQSISGIPSRFSGSGSGTDFTLSINSVETEDFGMYFCQQSNSWPHTFGGGTKLEIKRA

B2: vitronectin: human vitronectin purchased from GIBCO or donated (protein, UniProt P04004 20-478, looked up)
Vitronectin: DQESCKGRCTEGFNVDKKCQCDELCSYYQSCCTDYTAECKPQVTRGDVFTMPEDEYTVYDDGEEKNNATVHEQVGGPSLTSDLQAQSKGNPEQTPVLKPEEEAPAPEVGASKPEGIDSRPETLHPGRPQPPAEEELCSGKPFDAFTDLKNGSLFAFRGQYCYELDEKAVRPGYPKLIRDVWGIEGPIDAAFTRINCQGKTYLFKGSQYWRFEDGVLDPDYPRNISDGFDGIPDNVDAALALPAHSYSGRERVYFFKGKQYWEYQFQHQPSQEECEGSSLSAVFEHFAMMQRDSWEDIFELLFWGRTSAGTRQPQFISRDWHGVPGQVDAAMAGRIYISGMAPRPSLAKKQRFRHRNRKGYRSQRGHSRGRNQNSRRPSRATWLSLFSSEESNLGANNYDDYRMDWLVPATCEPIQSVFFFSGDKYYRVNLRTRRVDTVDPPYPRSIAQYWLGCPAPGHL
time and dose dependency of vitronectin-mediated increase in HL-60 adhesion ([3]; 10 to 60 minutes, 1.84 to 150 μg/ml): time-and dose-dependent manner
adhesion of differentiated HL-60 cells to HUVEC relative to cells not equilibrated with an adhesive protein [3]: three to four-fold
vitronectin concentration at which increase in HL-60 adhesion was saturated ([3]; vitronectin 1.84 to 150 μg/ml): 50 µg/mL

competition of D30 binding to HUVEC [7]: did not inhibit
B3: Myoglobin: a nonspecific protein (protein, UniProt P68082 2-154, looked up)
Myoglobin: GLSDGEWQQVLNVWGKVEADIAGHGQEVLIRLFTGHPETLEKFDKFKHLKTEAEMKASEDLKKHGTVVLTALGGILKKKGHHEAELKPLAQSHATKHKIPIKYLEFISDAIIHVLHSKHPGDFGADAQGAMTKALELFRNDIAAKYKELGFQG

Source: patent publication US6737058B2, “Methods for inhibiting endothelial cell and fibrinogen mediated inflammation using fibrinogen specific antibodies” (The Scripps Research Institute, priority 1992, dated 2004)
